Reference: US20020102617

Experiments:
[1] = tested on: protein phosphatase inhibitor 2 (I-2)
[2] = tested on: Kemptide (a peptide substrate for PKA)

| Substance | phosphorylation (33P-γ-ATP, autoradiography emulsion on slide) [1] | phosphorylation (33P-γ-ATP, autoradiography emulsion on slide) (Elk1) | phosphorylation (33P-γ-ATP, autoradiography emulsion on slide) [2] |
| --- | --- | --- | --- |
| casein kinase II (CKII) | only the specific substrates of these kinases (I-2 and Elk1, respectively) were phosphorylated | only the specific substrates of these kinases (I-2 and Elk1, respectively) were phosphorylated (Elk1 not phosphorylated by CKII) | only the specific substrates of these kinases (I-2 and Elk1, respectively) were phosphorylated (Kemptide not phosphorylated by CKII) |
| catalytic subunit of cAMP-dependent protein kinase (PKA) | only the substrate for PKA (Kemptide) was phosphorylated (I-2 not phosphorylated) | only the substrate for PKA (Kemptide) was phosphorylated (Elk1 not phosphorylated) | only the substrate for PKA (Kemptide) was phosphorylated |
| p42 MAP kinase (Erk2) | only the specific substrates of these kinases (I-2 and Elk1, respectively) were phosphorylated (I-2 not phosphorylated by Erk2) | only the specific substrates of these kinases (I-2 and Elk1, respectively) were phosphorylated | only the specific substrates of these kinases (I-2 and Elk1, respectively) were phosphorylated (Kemptide not phosphorylated by Erk2) |
